Test results taken from patent US20250115669A1, “FGFR1/KLB Targeting Agonistic Antigen-Binding Proteins and Conjugates Thereof with GLP-1R Agonistic Peptides” (SANOFI, priority 2020, published 2025).

T1: human beta-Klotho (Homo sapiens, UniProt Q86Z14)
T1 sequence (Q86Z14 1-1044): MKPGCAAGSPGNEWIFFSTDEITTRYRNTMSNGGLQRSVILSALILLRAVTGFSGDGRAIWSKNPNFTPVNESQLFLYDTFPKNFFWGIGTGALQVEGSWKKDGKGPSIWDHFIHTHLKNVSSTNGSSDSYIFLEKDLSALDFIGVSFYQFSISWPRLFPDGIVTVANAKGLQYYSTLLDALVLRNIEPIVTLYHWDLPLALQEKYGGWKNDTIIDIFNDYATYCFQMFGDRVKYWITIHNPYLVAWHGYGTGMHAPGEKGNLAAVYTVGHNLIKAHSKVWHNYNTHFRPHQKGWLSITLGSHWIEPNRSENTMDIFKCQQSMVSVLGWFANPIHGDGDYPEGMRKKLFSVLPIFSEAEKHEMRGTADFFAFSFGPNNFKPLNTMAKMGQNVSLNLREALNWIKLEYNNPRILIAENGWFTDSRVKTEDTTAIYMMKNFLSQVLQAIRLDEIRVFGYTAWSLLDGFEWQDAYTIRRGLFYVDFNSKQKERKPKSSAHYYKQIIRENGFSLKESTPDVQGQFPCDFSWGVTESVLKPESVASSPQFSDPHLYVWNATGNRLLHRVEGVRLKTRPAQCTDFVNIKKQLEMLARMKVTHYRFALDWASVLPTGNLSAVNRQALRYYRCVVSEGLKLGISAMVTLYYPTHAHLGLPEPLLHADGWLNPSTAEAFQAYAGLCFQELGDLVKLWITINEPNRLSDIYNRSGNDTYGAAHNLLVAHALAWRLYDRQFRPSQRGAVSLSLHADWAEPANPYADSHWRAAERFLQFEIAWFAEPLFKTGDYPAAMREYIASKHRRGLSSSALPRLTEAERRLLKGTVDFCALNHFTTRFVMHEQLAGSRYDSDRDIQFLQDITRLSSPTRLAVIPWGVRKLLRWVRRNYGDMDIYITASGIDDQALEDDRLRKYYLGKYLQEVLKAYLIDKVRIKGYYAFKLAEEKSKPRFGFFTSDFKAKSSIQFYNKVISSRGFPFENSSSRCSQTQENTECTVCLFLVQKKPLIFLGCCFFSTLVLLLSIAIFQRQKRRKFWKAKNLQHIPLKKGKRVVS


biological target: T1, human beta-Klotho; test: SPR off-rate screening of antibody mutants (human beta-Klotho captured by anti-His antibody); type: binding; conditions: mean, n=3
In short: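 Anti-His capture on amine-coupled CM5 surface; analyte (mutant Ab) 50 nmol/L; assoc 240 sec / dissoc 300 sec; regeneration per capture kit; kd by single-exponential fit.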

koff human KLB	Molecule
0.00195 s⁻¹	Ab0355: IgG4 PE; 16H7 VL (N25S, D49E, D50Y, D91E, N93S); 16H7 VH (M34V, I83T, D109E) (antibody) VH: QVTLKESGPVLVKPTETLTLTCTVSGFSLNNARVGVSWIRQPPGKALEWLAHIFSNDEKSYSTSLKSRLTISKDTSKSQVVLTMTNMDPVDTATYYCARSVVTGGYYYEGMDVWGQGTTVTVSS light: SYVLTQPPSVSVAPGQTARITCGGSNIGSESVHWYQQKPGQAPVLVVYEYSDRPSGIPERFSGSNSGNTATLTISRVEAGDEADYYCQVWEGSSDHVVFGGGTKLTVLGQPKANPTVTLFPPSSEELQANKATLVCLISDFYPGAVTVAWKADGSPVKAGVETTKPSKQSNNKYAASSYLSLTPEQWKSHRSYSCQVTHEGSTVEKTVAPTECS
0.00185 s⁻¹	Ab0357: IgG4 PE; 16H7 VL (N25S, D49E, D50A, D91E, N93S); 16H7 VH (M34V, I83T, D109E) (antibody) VH: QVTLKESGPVLVKPTETLTLTCTVSGFSLNNARVGVSWIRQPPGKALEWLAHIFSNDEKSYSTSLKSRLTISKDTSKSQVVLTMTNMDPVDTATYYCARSVVTGGYYYEGMDVWGQGTTVTVSS light: SYVLTQPPSVSVAPGQTARITCGGSNIGSESVHWYQQKPGQAPVLVVYEASDRPSGIPERFSGSNSGNTATLTISRVEAGDEADYYCQVWEGSSDHVVFGGGTKLTVLGQPKANPTVTLFPPSSEELQANKATLVCLISDFYPGAVTVAWKADGSPVKAGVETTKPSKQSNNKYAASSYLSLTPEQWKSHRSYSCQVTHEGSTVEKTVAPTECS
invalid fit	Ab0356: IgG4 PE; 16H7 VL (N25S, D49E, D50A, D91A, N93S); 16H7 VH (M34V, I83T, D109E) (antibody) VH: QVTLKESGPVLVKPTETLTLTCTVSGFSLNNARVGVSWIRQPPGKALEWLAHIFSNDEKSYSTSLKSRLTISKDTSKSQVVLTMTNMDPVDTATYYCARSVVTGGYYYEGMDVWGQGTTVTVSS light: SYVLTQPPSVSVAPGQTARITCGGSNIGSESVHWYQQKPGQAPVLVVYEASDRPSGIPERFSGSNSGNTATLTISRVEAGDEADYYCQVWAGSSDHVVFGGGTKLTVLGQPKANPTVTLFPPSSEELQANKATLVCLISDFYPGAVTVAWKADGSPVKAGVETTKPSKQSNNKYAASSYLSLTPEQWKSHRSYSCQVTHEGSTVEKTVAPTECS
0.0005302 s⁻¹	Ab0312: IgG4 PE; 16H7 VL (N25S, D49Y, D50E, N93E); 16H7 VH (M34V, I83T, D109E) (antibody) VH: QVTLKESGPVLVKPTETLTLTCTVSGFSLNNARVGVSWIRQPPGKALEWLAHIFSNDEKSYSTSLKSRLTISKDTSKSQVVLTMTNMDPVDTATYYCARSVVTGGYYYEGMDVWGQGTTVTVSS light: SYVLTQPPSVSVAPGQTARITCGGSNIGSESVHWYQQKPGQAPVLVVYYESDRPSGIPERFSGSNSGNTATLTISRVEAGDEADYYCQVWDGESDHVVFGGGTKLTVLGQPKANPTVTLFPPSSEELQANKATLVCLISDFYPGAVTVAWKADGSPVKAGVETTKPSKQSNNKYAASSYLSLTPEQWKSHRSYSCQVTHEGSTVEKTVAPTECS
invalid fit	Ab0363: IgG4 PE; 16H7 VL (N25A, D49S, D50A, D91A, N93A); 16H7 VH (M34V, I83T, D109E) (antibody) VH: QVTLKESGPVLVKPTETLTLTCTVSGFSLNNARVGVSWIRQPPGKALEWLAHIFSNDEKSYSTSLKSRLTISKDTSKSQVVLTMTNMDPVDTATYYCARSVVTGGYYYEGMDVWGQGTTVTVSS light: SYVLTQPPSVSVAPGQTARITCGGANIGSESVHWYQQKPGQAPVLVVYSASDRPSGIPERFSGSNSGNTATLTISRVEAGDEADYYCQVWAGASDHVVFGGGTKLTVLGQPKANPTVTLFPPSSEELQANKATLVCLISDFYPGAVTVAWKADGSPVKAGVETTKPSKQSNNKYAASSYLSLTPEQWKSHRSYSCQVTHEGSTVEKTVAPTECS
0.00163 s⁻¹	Ab0361: IgG4 PE; 16H7 VL (N25S, D49E, D50S, D91E, N93S); 16H7 VH (M34V, I83T, D109E) (antibody) VH: QVTLKESGPVLVKPTETLTLTCTVSGFSLNNARVGVSWIRQPPGKALEWLAHIFSNDEKSYSTSLKSRLTISKDTSKSQVVLTMTNMDPVDTATYYCARSVVTGGYYYEGMDVWGQGTTVTVSS light: SYVLTQPPSVSVAPGQTARITCGGSNIGSESVHWYQQKPGQAPVLVVYESSDRPSGIPERFSGSNSGNTATLTISRVEAGDEADYYCQVWEGSSDHVVFGGGTKLTVLGQPKANPTVTLFPPSSEELQANKATLVCLISDFYPGAVTVAWKADGSPVKAGVETTKPSKQSNNKYAASSYLSLTPEQWKSHRSYSCQVTHEGSTVEKTVAPTECS
invalid fit	Ab0359: IgG4 PE; 16H7 VL (N25S, D49E, D50H, D91A, N93S); 16H7 VH (M34V, I83T, D109E) (antibody) VH: QVTLKESGPVLVKPTETLTLTCTVSGFSLNNARVGVSWIRQPPGKALEWLAHIFSNDEKSYSTSLKSRLTISKDTSKSQVVLTMTNMDPVDTATYYCARSVVTGGYYYEGMDVWGQGTTVTVSS light: SYVLTQPPSVSVAPGQTARITCGGSNIGSESVHWYQQKPGQAPVLVVYEHSDRPSGIPERFSGSNSGNTATLTISRVEAGDEADYYCQVWAGSSDHVVFGGGTKLTVLGQPKANPTVTLFPPSSEELQANKATLVCLISDFYPGAVTVAWKADGSPVKAGVETTKPSKQSNNKYAASSYLSLTPEQWKSHRSYSCQVTHEGSTVEKTVAPTECS
0.0004541 s⁻¹	Ab0358: IgG4 PE; 16H7 VL (N25S, D49E, D50A, D91H, N93S); 16H7 VH (M34V, I83T, D109E) (antibody) VH: QVTLKESGPVLVKPTETLTLTCTVSGFSLNNARVGVSWIRQPPGKALEWLAHIFSNDEKSYSTSLKSRLTISKDTSKSQVVLTMTNMDPVDTATYYCARSVVTGGYYYEGMDVWGQGTTVTVSS light: SYVLTQPPSVSVAPGQTARITCGGSNIGSESVHWYQQKPGQAPVLVVYEASDRPSGIPERFSGSNSGNTATLTISRVEAGDEADYYCQVWHGSSDHVVFGGGTKLTVLGQPKANPTVTLFPPSSEELQANKATLVCLISDFYPGAVTVAWKADGSPVKAGVETTKPSKQSNNKYAASSYLSLTPEQWKSHRSYSCQVTHEGSTVEKTVAPTECS
0.0016 s⁻¹	Ab0298: IgG4 PE; 16H7 VL (N25S, D49Y, D50E); 16H7 VH (M34V, I83T, D109E) (antibody) VH: QVTLKESGPVLVKPTETLTLTCTVSGFSLNNARVGVSWIRQPPGKALEWLAHIFSNDEKSYSTSLKSRLTISKDTSKSQVVLTMTNMDPVDTATYYCARSVVTGGYYYEGMDVWGQGTTVTVSS light: SYVLTQPPSVSVAPGQTARITCGGSNIGSESVHWYQQKPGQAPVLVVYYESDRPSGIPERFSGSNSGNTATLTISRVEAGDEADYYCQVWDGNSDHVVFGGGTKLTVLGQPKANPTVTLFPPSSEELQANKATLVCLISDFYPGAVTVAWKADGSPVKAGVETTKPSKQSNNKYAASSYLSLTPEQWKSHRSYSCQVTHEGSTVEKTVAPTECS
invalid fit	Ab0362: IgG4 PE; 16H7 VL (N25S, D49T, D50E, D91A, N93S); 16H7 VH (M34V, I83T, D109E) (antibody) VH: QVTLKESGPVLVKPTETLTLTCTVSGFSLNNARVGVSWIRQPPGKALEWLAHIFSNDEKSYSTSLKSRLTISKDTSKSQVVLTMTNMDPVDTATYYCARSVVTGGYYYEGMDVWGQGTTVTVSS light: SYVLTQPPSVSVAPGQTARITCGGSNIGSESVHWYQQKPGQAPVLVVYTESDRPSGIPERFSGSNSGNTATLTISRVEAGDEADYYCQVWAGSSDHVVFGGGTKLTVLGQPKANPTVTLFPPSSEELQANKATLVCLISDFYPGAVTVAWKADGSPVKAGVETTKPSKQSNNKYAASSYLSLTPEQWKSHRSYSCQVTHEGSTVEKTVAPTECS
0.00192 s⁻¹	Ab0360: IgG4 PE; 16H7 VL (N25S, D49E, D50H, D91E, N93S); 16H7 VH (M34V, I83T, D109E) (antibody) VH: QVTLKESGPVLVKPTETLTLTCTVSGFSLNNARVGVSWIRQPPGKALEWLAHIFSNDEKSYSTSLKSRLTISKDTSKSQVVLTMTNMDPVDTATYYCARSVVTGGYYYEGMDVWGQGTTVTVSS light: SYVLTQPPSVSVAPGQTARITCGGSNIGSESVHWYQQKPGQAPVLVVYEHSDRPSGIPERFSGSNSGNTATLTISRVEAGDEADYYCQVWEGSSDHVVFGGGTKLTVLGQPKANPTVTLFPPSSEELQANKATLVCLISDFYPGAVTVAWKADGSPVKAGVETTKPSKQSNNKYAASSYLSLTPEQWKSHRSYSCQVTHEGSTVEKTVAPTECS
